# Laboratory results reported in article doi:10.1101/2025.07.21.666041 (bioRxiv, 2025).
# Where “and” joins values, the source holds several entries; their conditions need not be identical. Equal entries are not always repeated. Where two headings read alike, the source gives them in different places.
# B1: Measles virus (MeV) phosphoprotein P, N-terminally truncated (residues 304–507) (domain or fragment)
# chain: GDYYDDELFSDVQDIKTALAKIHEDNQKIISKLESLLLLKGEVESIKKQINRQNISISTLEGHLSSIMIAIPGLGKDPNDPTADVEINPDLKPIIGRDSGRALAEVLKKPVASRQLQGMTNGRTSSRGQLLKEFQPKPIGKKMSSAVGFVPDTGPASRSVIRSIIKSSRLEEDRKRYLMTLLDDIKGANDLAKFHQMLMKIIMK
# B2: Measles virus (MeV) nonstructural protein C, full length, C-terminal GFP-Flag (natural protein)
# chain: MSKTDWNASGLSRPSPSAHWPSRKLWQHGQKYQTTQDRSEPPAGKRRQAVRVSANHASQQLDQLKAVHLASAVRDLERAMTTLKLWESPQEISRHQALGYSVIMFMITAVKRLRESKMLTLSWFNQALMVIAPYQEETMNLKTAMWILANLIPRDMLSLTGDLLPSLWGSGLLMLKLQKEGRSTSS
# B3: Measles virus (MeV) phosphoprotein P, full length (natural protein)
# chain: MAEEQARHVKNGLECIRALKAEPIGSLAIEEAMAAWSEISDNPGQERATCREEKAGSSGLSKPCLSAIGSTEGGAPRIRGQGPGESDDDAETLGIPPRNLQASSTGLQCYYVYDHSGEAVKGIQDADSIMVQSGLDGDSTLSGGDNESENSDVDIGEPDTEGYAITDRGSAPISMGFRASDVETAEGGEIHELLRLQSRGNNFPKLGKTLNVPPPPDPGRASTSGTPIKKGTERRLASFGTEIASLLTGGATQCARKSPSEPSGPGAPAGNVPEYVSNAALIQEWTPESGTTISPRSQNNEEGGDYYDDELFSDVQDIKTALAKIHEDNQKIISKLESLLLLKGEVESIKKQINRQNISISTLEGHLSSIMIAIPGLGKDPNDPTADVEINPDLKPIIGRDSGRALAEVLKKPVASRQLQGMTNGRTSSRGQLLKEFQPKPIGKKMSSAVGFVPDTGPASRSVIRSIIKSSRLEEDRKRYLMTLLDDIKGANDLAKFHQMLMKIIMK
# Key:
# [1] = biological target: Measles virus (MeV) nonstructural protein C, full length, C-terminal GFP-Flag (measles virus) (UniProt P35977); assay: MST
# [2] = biological target: T1, Measles virus (MeV) large (L) protein, full length (measles virus, UniProt P35975 1-2183); assay: cryo-EM structure
# T1 sequence (P35975 whole entry): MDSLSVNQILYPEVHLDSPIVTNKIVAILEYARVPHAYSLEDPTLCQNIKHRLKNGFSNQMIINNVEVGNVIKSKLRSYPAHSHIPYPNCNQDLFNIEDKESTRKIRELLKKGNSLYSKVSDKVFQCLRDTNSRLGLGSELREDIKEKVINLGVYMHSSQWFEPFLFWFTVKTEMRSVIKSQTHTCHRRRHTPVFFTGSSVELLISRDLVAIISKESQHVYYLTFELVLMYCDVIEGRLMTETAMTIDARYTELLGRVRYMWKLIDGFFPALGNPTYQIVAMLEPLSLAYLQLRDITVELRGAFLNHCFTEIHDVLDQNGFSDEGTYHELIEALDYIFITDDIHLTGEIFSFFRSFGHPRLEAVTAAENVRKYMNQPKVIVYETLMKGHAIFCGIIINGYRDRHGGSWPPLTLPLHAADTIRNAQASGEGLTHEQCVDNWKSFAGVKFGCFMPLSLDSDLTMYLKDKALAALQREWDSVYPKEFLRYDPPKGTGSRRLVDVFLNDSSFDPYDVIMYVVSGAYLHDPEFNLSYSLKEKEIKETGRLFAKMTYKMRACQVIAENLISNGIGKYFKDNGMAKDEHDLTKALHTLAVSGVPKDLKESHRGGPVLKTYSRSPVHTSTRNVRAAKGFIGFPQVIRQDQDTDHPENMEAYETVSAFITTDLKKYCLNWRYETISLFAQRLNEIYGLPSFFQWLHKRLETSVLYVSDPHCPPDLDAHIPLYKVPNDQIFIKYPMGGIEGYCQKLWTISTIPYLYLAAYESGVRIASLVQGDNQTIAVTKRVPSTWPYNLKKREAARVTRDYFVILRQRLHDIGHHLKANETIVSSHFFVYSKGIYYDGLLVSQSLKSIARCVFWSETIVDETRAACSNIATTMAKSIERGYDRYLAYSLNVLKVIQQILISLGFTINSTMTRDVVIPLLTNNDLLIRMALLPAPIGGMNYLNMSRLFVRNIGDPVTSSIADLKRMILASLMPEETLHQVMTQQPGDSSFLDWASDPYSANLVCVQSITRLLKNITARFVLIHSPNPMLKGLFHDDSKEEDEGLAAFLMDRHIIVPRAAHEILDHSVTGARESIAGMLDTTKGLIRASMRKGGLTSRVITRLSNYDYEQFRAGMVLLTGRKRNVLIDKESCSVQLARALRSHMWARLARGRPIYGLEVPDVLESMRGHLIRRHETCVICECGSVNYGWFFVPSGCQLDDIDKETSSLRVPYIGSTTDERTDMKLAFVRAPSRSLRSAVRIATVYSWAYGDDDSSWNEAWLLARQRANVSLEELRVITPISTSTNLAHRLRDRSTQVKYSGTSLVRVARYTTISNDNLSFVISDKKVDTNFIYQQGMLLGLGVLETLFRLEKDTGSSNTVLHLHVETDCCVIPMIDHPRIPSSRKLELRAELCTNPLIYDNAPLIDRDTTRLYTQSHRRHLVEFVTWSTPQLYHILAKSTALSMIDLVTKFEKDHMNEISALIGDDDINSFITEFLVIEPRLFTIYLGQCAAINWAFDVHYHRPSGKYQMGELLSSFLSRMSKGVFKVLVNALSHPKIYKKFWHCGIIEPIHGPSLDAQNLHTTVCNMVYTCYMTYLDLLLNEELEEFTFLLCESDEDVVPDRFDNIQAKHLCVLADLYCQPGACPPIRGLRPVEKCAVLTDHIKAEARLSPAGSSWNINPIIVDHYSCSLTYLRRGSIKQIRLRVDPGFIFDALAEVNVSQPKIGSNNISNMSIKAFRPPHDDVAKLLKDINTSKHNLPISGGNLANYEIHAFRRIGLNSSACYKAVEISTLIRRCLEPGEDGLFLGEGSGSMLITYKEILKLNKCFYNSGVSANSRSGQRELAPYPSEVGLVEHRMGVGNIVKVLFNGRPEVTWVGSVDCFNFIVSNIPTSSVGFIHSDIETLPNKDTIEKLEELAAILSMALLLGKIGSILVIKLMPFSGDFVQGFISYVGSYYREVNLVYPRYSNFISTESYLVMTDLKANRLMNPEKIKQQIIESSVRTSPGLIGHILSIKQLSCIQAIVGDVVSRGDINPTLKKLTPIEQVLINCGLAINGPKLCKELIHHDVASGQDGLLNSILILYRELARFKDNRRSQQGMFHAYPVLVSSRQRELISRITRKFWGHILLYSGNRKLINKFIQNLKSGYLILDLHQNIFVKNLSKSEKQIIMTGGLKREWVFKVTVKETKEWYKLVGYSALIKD
# cryo-EM structure [3] = biological target: the molecule itself; assay: cryo-EM structure
# [4] = biological target: Measles virus L–P complex (full-length L with truncated P 304–507) (measles virus, UniProt P35975;P35974); assay: MST
# Chain of Measles virus L–P complex (full-length L with truncated P 304–507) (P35975 whole entry, the tested form may be a part, one chain of several): as the sequence (P35975 whole entry) above
# cryo-EM structure [5] = biological target: the molecule itself; assay: cryo-EM structure; remark: listed apart in the source
# [6] = biological target: T1, Measles virus (MeV) large (L) protein, …; assay: SEC
molecule,measurement,setting,value
Measles virus nucleoprotein N lacking the N-arm (residues 30–525) (from UniProt P35972 30-525) (domain or fragment),Kd,[1],4.57 µM and 3.92 µM
B1,binding result,[2],binds
same,stoichiometry N,cryo-EM structure [3],4
B2,Kd,[4],~0.32 µM
same,stoichiometry N,cryo-EM structure [5],2
B3,binding result,[6],binds
